Measurements: patent US20220298235A1 (AKESO BIOPHARMA, published 2022)
Numbering of substitutions follows the chain as printed. Blank lines part the entries; values can stand above or below the binder they belong to.

Tests used:
Human IL12 (His Tag) [1] = target: T1, Human IL12 (His Tag) (human, UniProt P29459 23-219; P29460 23-328); assay: FACS competition, IL-12-His 20 nM on 293T-IL-12Rβ1&IL-23R cells; antibody 1.11 µg/mL
T1 construct: Bought His-tagged heterodimer
T1 sequence (looked up) 1: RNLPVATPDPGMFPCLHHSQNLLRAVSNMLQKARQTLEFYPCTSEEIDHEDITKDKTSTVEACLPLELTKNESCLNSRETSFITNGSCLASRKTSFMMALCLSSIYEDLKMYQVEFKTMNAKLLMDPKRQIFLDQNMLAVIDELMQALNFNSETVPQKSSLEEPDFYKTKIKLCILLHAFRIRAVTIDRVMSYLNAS
T1 sequence (looked up) 2: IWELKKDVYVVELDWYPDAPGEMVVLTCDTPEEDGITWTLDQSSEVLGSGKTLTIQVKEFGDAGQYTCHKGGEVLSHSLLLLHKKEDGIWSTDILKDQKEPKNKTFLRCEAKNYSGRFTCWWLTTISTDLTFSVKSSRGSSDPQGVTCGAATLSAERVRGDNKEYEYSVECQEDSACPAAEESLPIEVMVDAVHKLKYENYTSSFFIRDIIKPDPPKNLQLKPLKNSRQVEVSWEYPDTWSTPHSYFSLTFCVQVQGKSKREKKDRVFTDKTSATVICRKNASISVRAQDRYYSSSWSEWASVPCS
Experimental: (§1) 200 μL of 1% PBSA was added into each sample, and the mixture was centrifuged at 700×g for 5 min to discard the supernatant. According to experiment design, correspondingly diluted antibody (highest final concentration of 30 μg/mL, 3-fold dilution, 8 concentrations in total) and human IL-12 (Sino Biological, Cat. No.: CT-050-H08H-20) (final concentration of 20 nM) were mixed at a ratio of 1:1, and a blank control was set. The mixture of antibody and human IL12 was incubated on ice for 30 min and then added to the cell precipitate at 100 μL/sample. The resulting mixture was well mixed and incubated on ice for 60 min 200 μL of 1% PBSA was added, and the mixture was centrifuged at 700×g for 5 min to discard the supernatant, and then washed twice. Alexa Fluor® 488 anti-His tag antibody (Biolegend, Cat. No.: 652509) was diluted at a ratio of 1:400 and added to each tube at 100 μL. The mixture was well mixed and incubated on ice for 40 min in the absence of light. 200 μL of 1% PBSA was added, and the mixture was centrifuged at 700×g for 5 min to discard the supernatant, and then washed twice. 1% PBSA was added at 200 μL/tube, and the cells were resuspended and transferred to a flow cytometry tube for testing.

Human IL12 (His Tag) [2] = target: T1, Human IL12 (His Tag); assay: FACS competition, IL-12-His 20 nM on 293T-IL-12Rβ1&IL-23R cells; antibody 0.01 µg/mL
Experimental: as §1

Human IL12 (His Tag) [3] = target: T1, Human IL12 (His Tag); assay: FACS competition, IL-12-His 20 nM on 293T-IL-12Rβ1&IL-23R cells; antibody 0.37 µg/mL
Experimental: as §1

human p40-His = target: T2, human p40-His (human, UniProt P29460 23-328); assay: BLI (Fortebio), p40-His on HIS1K sensor, antibody 5-0.31 nM, 37 °C, 1:1 fit
T2 construct: Made by Akeso Biopharma; construct limits and tag not described; also called human IL-12/IL-23 p40 protein domain; human IL-12/IL-23 p40; not shown: His tag
T2 sequence (looked up): T1 sequence (looked up) 2
Experimental: The sample dilution buffer for H5L9, H5L10, H5L11, H5L12, H5L14, H8L15, Ab123FR1 and ustekinumab was PBS (0.02% Tween-20, 0.1% BSA, pH 7.4). p40-His was immobilized on a HIS1K (manufacturer: Fortebio, Cat. No.: 18-5120) sensor at a concentration of 1 μg/mL for 40 s. The sensor was equilibrated in a buffer for 60 s, and the p40-His immobilized on the sensor bound to the antibody at a concentration of 5-0.31 nM (two-fold dilution) for 120 s, and then the protein dissociated in the buffer for 300 s. The sensor was refreshed with 10 mM glycine solution (pH=1.5). The detection temperature was 37° C., the detection frequency was 0.3 Hz, and the sample plate shaking rate was 500 rpm. The data were analyzed by 1:1 model fitting to obtain affinity constants.

[4] = target: T3, human IL-23 (IL-23-His-Biotin) (human, UniProt Q9NPF7 20-189; P29460 23-328, biotin label, site not stated); assay: FACS competition, IL-23-His-Biotin 2 µg/mL on 293T-IL-12Rβ1&IL-23R cells; antibody 10 µg/mL
T3 construct: Akesobio lot 20161209; His-tagged and biotinylated
T3 sequence (looked up) 1: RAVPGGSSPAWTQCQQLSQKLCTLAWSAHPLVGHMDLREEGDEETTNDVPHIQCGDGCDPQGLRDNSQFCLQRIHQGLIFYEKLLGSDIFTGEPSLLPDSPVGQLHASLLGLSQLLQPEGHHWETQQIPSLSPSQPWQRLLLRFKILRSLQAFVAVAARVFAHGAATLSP
T3 sequence (looked up) 2: T1 sequence (looked up) 2
Experimental: (§2) 200 μL of 1% PBSA was added into each sample, and the mixture was centrifuged at 700×g for 5 min to discard the supernatant. According to experiment design, correspondingly diluted antibody (highest final concentration of 30 μg/mL, 3-fold dilution, 8 concentrations in total) and human IL-23 (IL-23-His-Biotin, Akesobio, 20161209) (final concentration of 2 μg/mL) were mixed at a ratio of 1:1, and a blank control was set. The mixture of antibody and human IL23 was incubated on ice for 30 min and then added to the cell precipitate at 100 μL/sample. The resulting mixture was well mixed and incubated on ice for 60 min. 200 μL of 1% PBSA was added, and the mixture was centrifuged at 700×g for 5 min to discard the supernatant, and then washed twice. FITC Steptavidin (Biolegend, Cat. No.: 405202) was diluted at a ratio of 1:500 and added to each tube at 100 μL. The mixture was well mixed and incubated on ice for 40 min in the absence of light. 200 μL of 1% PBSA was added, and the mixture was centrifuged at 700×g for 5 min to discard the supernatant, and then washed twice. 1% PBSA was added at 200 μL/tube, and the cells were resuspended and transferred to a flow cytometry tube for testing.

[5] = target: T3, human IL-23 (IL-23-His-Biotin); assay: FACS competition, IL-23-His-Biotin 2 µg/mL on 293T-IL-12Rβ1&IL-23R cells; antibody 0.37 µg/mL
Experimental: as §2

- MFI (Human IL12 (His Tag) [1]): 31.9 MFI
- MFI (Human IL12 (His Tag) [2]): 160 MFI
- MFI (Human IL12 (His Tag) [3]): 95.7 MFI
- Kd (human p40-His): 0.0864 nM
- S E (kon) (human p40-His): 251000 M⁻¹ s⁻¹
- S E(kdis) (human p40-His): 0.000181 s⁻¹
- koff (human p40-His): 0.000172 s⁻¹
- kon (human p40-His): 1.99e+06 M⁻¹ s⁻¹
- MFI [4]: 11.5 MFI
- MFI [5]: 186 MFI
B1: ustekinumab (antibody, V domains shown)
VH: EVQLVQSGAEVKKPGESLKISCKGSGYSFTTYWLGWVRQMPGKGLDWIGIMSPVDSDIRYSPSFQGQVTMSVDKSITTAYLQWNSLKASDTAMYYCARRRPGQGYFDFWGQGTLVTVSS
VL: DIQMTQSPSSLSASVGDRVTITCRASQGISSWLAWYQQKPEKAPKSLIYAASSLQSGVPSRFSGSGSGTDFTLTISSLQPEDFATYYCQQYNIYPYTFGQGTKLEIK

- MFI (Human IL12 (His Tag) [1]): 66 MFI
- MFI (Human IL12 (His Tag) [2]): 149 MFI
- MFI (Human IL12 (His Tag) [3]): 113 MFI
- Kd (human p40-His): 0.062 nM
- S E (kon) (human p40-His): 236000 M⁻¹ s⁻¹
- S E(kdis) (human p40-His): 0.000158 s⁻¹
- koff (human p40-His): 0.000182 s⁻¹
- kon (human p40-His): 2.94e+06 M⁻¹ s⁻¹
- MFI [4]: 16.7 MFI
- MFI [5]: 179 MFI
B5: H5L14 (antibody, human IgG1, kappa, V domains shown)
VH: EVQLVQSGAEVKKPGESLKISCQSSGYSFTTYWIGWVRQMPGQGLEWIGIMSPVDSDIRYNPMFRGQVTMSVDKSSSTAYLQWSSLKASDTAMYYCARRRPGQGYFDFWGQGTMVTVSS
VL: EIVLTQSPATLSASPGERATISCRASQSVSSWLAWYQQKPGQAPRSLIYAASNLQSGIPARFSGSGSGTDFTLTISSLEPEDFAVYYCQQYNIYPFTFGQGTRLEIKR
notes: human IgG1 / kappa constant regions; also called humanized antibody H5L14

Continued, binder first:

B2: H5L10 (antibody, human IgG1, kappa, V domains shown)
VH: B5 VH
VL: B5 VL with S30G, F96Y
notes: human IgG1 / kappa constant regions; also called humanized antibody H5L10
- MFI (Human IL12 (His Tag) [1]): 44.6 MFI
- MFI (Human IL12 (His Tag) [2]): 163 MFI
- MFI (Human IL12 (His Tag) [3]): 87.5 MFI
- Kd (human p40-His): 0.121 nM
- S E (kon) (human p40-His): 364000 M⁻¹ s⁻¹
- S E(kdis) (human p40-His): 0.000222 s⁻¹
- koff (human p40-His): 0.000435 s⁻¹
- kon (human p40-His): 3.58e+06 M⁻¹ s⁻¹
- MFI [4]: 12.7 MFI
- MFI [5]: 169 MFI

B3: H5L9 (antibody, human IgG1, kappa, V domains shown)
VH: B5 VH
VL: DIQMTQSPSSLSASVGDRVTITCKASQNVGSWLAWYQQKPGKAPKSLIYSASSRQSGVPSRFSGSGSGTDFTLTISSLQPEDFATYYCQQYDIYPFTFGQGTKLEIKR
notes: human IgG1 (P01857) / kappa (P01834) constant regions; also called humanized antibody H5L9
- MFI (Human IL12 (His Tag) [1]): 157 MFI
- MFI (Human IL12 (His Tag) [2]): 169 MFI
- MFI (Human IL12 (His Tag) [3]): 159 MFI
- Kd (human p40-His): 0.849 nM
- S E (kon) (human p40-His): 850000 M⁻¹ s⁻¹
- S E(kdis) (human p40-His): 0.000307 s⁻¹
- koff (human p40-His): 0.0092 s⁻¹
- kon (human p40-His): 1.08e+07 M⁻¹ s⁻¹
- MFI [4]: 136 MFI
- MFI [5]: 206 MFI

B4: H5L12 (antibody, human IgG1, kappa, V domains shown)
VH: B5 VH
VL: B5 VL with L54R, F96Y
notes: human IgG1 / kappa constant regions; also called humanized antibody H5L12
- MFI (Human IL12 (His Tag) [1]): 38.5 MFI
- MFI (Human IL12 (His Tag) [2]): 161 MFI
- MFI (Human IL12 (His Tag) [3]): 86.6 MFI
- Kd (human p40-His): 0.0905 nM
- S E (kon) (human p40-His): 212000 M⁻¹ s⁻¹
- S E(kdis) (human p40-His): 0.000124 s⁻¹
- koff (human p40-His): 0.000348 s⁻¹
- kon (human p40-His): 3.84e+06 M⁻¹ s⁻¹
- MFI [4]: 12.7 MFI
- MFI [5]: 177 MFI

B6: H5L11 (antibody, human IgG1, kappa, V domains shown)
VH: B5 VH
VL: B5 VL with A50S, F96Y
notes: human IgG1 / kappa constant regions; also called humanized antibody H5L11
- MFI (Human IL12 (His Tag) [1]): 54.3 MFI
- MFI (Human IL12 (His Tag) [2]): 166 MFI
- MFI (Human IL12 (His Tag) [3]): 103 MFI
- Kd (human p40-His): 0.136 nM
- S E (kon) (human p40-His): 232000 M⁻¹ s⁻¹
- S E(kdis) (human p40-His): 0.000144 s⁻¹
- koff (human p40-His): 0.000428 s⁻¹
- kon (human p40-His): 3.15e+06 M⁻¹ s⁻¹
- MFI [4]: 14.5 MFI
- MFI [5]: 179 MFI
